This note sets out measurements from patent US20240156979A1.

This test has as its target Siglec-specific antibody for Siglec-9 (R&D Systems MAB1139). Nature of the test: ForteBio Octet; construct captured on AHC biosensor, antibody titrated; 1:1 fit.

Sig-9-Fc (Fc fusion) registered a Kd below 10 nM.

As usually defined, the Kd is the concentration at which binding is half-saturated. Read a high Kd as lower affinity.
